The source of these data is patent US20250382354A1 (INSTITUTE FOR RESEARCH IN BIOMEDICINE IRB, published 2025).

Residue numbers refer to the chain shown, from its start.

One assay concerns the target SADS FP peptide (SADS). Kind of assay: peptide ELISA. (In general: An ELISA detects its analyte on a solid surface through an enzyme-linked reagent.)
Assay [1] has as its target C-terminally truncated SARS-CoV-2 S protein (pSARS-CoV2-Strunc), ancestral (SARS-CoV-2, UniProt P0DTC2 14-1273). Briefly: cell-based or functional assay.
In the next assay the target is T1, HCoV-229E S ectodomain (HCoV-229E).
T1 construct: range 17-1142
Briefly: ELISA on coated S.

In assay [2] the target is HKU24 HR2 peptide (HKU24). Briefly: peptide ELISA.
The target of a further assay is Rosettus HR2 peptide (Rosettus). Kind of assay: peptide ELISA.
The target in assay [3] is SARS-CoV-2 SD1-RBD Ancestral (SARS-CoV-2 (ancestral), UniProt P0DTC2 319-591). Kind of assay: SPR, antigen immobilized, Fab injected.
In assay [4] the target is Eidolon HR2 peptide (Eidolon). Kind of assay: peptide ELISA.
Assay [5] deals with HKU24 HR2 peptide (HKU24). Kind of assay: peptide ELISA. The source holds these as a separate data set.
The target in another assay is T2, CRCoV-240/05 HR2 peptide (CRCoV-240/05).
T2 construct: domain: HR2 peptide
Briefly: peptide ELISA.

The target of assay [6] is Eidolon HR2 peptide (Eidolon). Kind of assay: peptide ELISA. This is another data set of the same source.
Assay [7] has as its target C-terminally truncated SARS-CoV-2 S protein (pSARS-CoV2-Strunc), ancestral (SARS-CoV-2, UniProt P0DTC2 14-1273). Briefly: cell-based or functional assay. The source holds these as a separate data set.
The target in another assay is Erinaceus HR2 peptide (Erinaceus). Kind of assay: peptide ELISA.

B1: fp.001 (antibody, V domains shown)
VH: VQLVESGGGVVQPGRPLRLSCSGSGFIFSNYAMHWVRQAPGKGLEWVAIISFDARNKRYADSVEGRFTISRDNSKNILYLQMNSLRLEDSAVYFCARDLFLSDYDNGVYDPTRGGFDYWGQGTLVTVSS
VL: EIVMTQSPATLSLSPGERATLSCRASQSVNNRLAWYQQKLGQPPRLLISGASTRATGIPARFTGSGSGTEFTLTISSLQSEDFAVYYCQQYHDWPLLSFGGGTKVEIK
For the molecule B1, the concentration giving a half-maximal response (EC50) in the assay with SADS FP peptide stood at 0.0255 µg/mL; in the assay with HCoV-229E S ectodomain it was 0.028 µg/mL. The “Ancestral Pseudovirus IC50” value in [1] worked out at 2.19 µg/mL.

B2: fp.003 (antibody, V domains shown)
VH: VQLVESGGGVVQPGTSLRLSCTASGFSFSNYAMHWVRQAPGKGLEWVAIISFDTRNKEFADSVKGRFSISRDNSKNSLNLQMNSLRPEDTGVYYCARDLFLSDYDSRGYEPSRGGFDYWGQGTLVTVSS
VL: B1 VL with L13V, N30S, N31S, R32S, S49Y, T63S, Q79K, F83S, H92N
For the molecule B2, the EC50 with SADS FP peptide is 0.0305 µg/mL; with HCoV-229E S ectodomain, 0.0443 µg/mL. Also, the “Ancestral Pseudovirus IC50” value in assay [1] was determined as 9.26 µg/mL.

B3: fp.004 (antibody, V domains shown)
VH: VQLVESGGGVVQPGTSLRLSCVASGFTFSNYAMHWVRQAPGKGLEWVAIISFDTRNTASAASVKGRFNISRDNSKNSLYLQMNSLRPEDTGVYYCARDLFLSDYDSRGYDPITGGFDCWGQGTLVTVSS
VL: EIVMTQSPAALSVSPGEGATLSCRASQSVGSRLAWYQQKLGRPPRLLIYGASTRATGIPARFSGSGSGTEFTLTISSLQSEDFAVYYCQQYNDWPLLTFGGGTKVKIK
Take B3: the EC50 with SADS FP peptide is 0.0276 µg/mL; with HCoV-229E S ectodomain it was 0.037 µg/mL. In assay [1], the “Ancestral Pseudovirus IC50” value came out at 7.84 µg/mL.

B4: hr2.094 (antibody, V domains shown)
VH: EVQLVESGGGLVQPGGSLRLSCAASGFTFSTFWMTWVRQAPGKGLEWVANIKSDGSEKYYVDSVKGRFTISRDNAKNSLYLQMNSLRAEDTAVYYCATWFGLHWGQGTLVTVSS
VL: DIVMTQSPDSLAVSLGERASINCKSSQTVLYSSNNKNYLAWYQQKPGQPPKLLIHWASTRDSGVPDRFSGSGSGTDFTLTISSLQAEDVAVYYCQQYHRIPWTFGRGTKVEIK
Turning to B4, the EC50 with HKU24 HR2 peptide [2] stood at 0.012 µg/mL; with Rosettus HR2 peptide, 0.656 µg/mL. Moreover, the “Ancestral Pseudovirus IC50” value in [1] was found to be 2.95 µg/mL.

B5: sd1.040 Fab (Fab, V domains shown)
VH: QVQLVQSGAEVKKPGASVKVSCKASGYTFTSFYIHWVRQAPGQGLEWMGIIDPSGGSTSYPQKFQGRVTMTRDTSTSTVYMDLSSLRSEDTAVYYCTRDGSAGDNSWFDPWGQGTLVTVSS
VL: not shown
Turning to B5, the Kd in assay [3] worked out at 4.2 nM.

B6: fp.008 (antibody, V domains shown)
VH: VQLVESGGGVVQPGRSLRLSCRASGFRFNNYAMHWVRQAPGKGLEWVAIISYEARNEKYAASVKGRFSISRDNAKNTLYLQMNSLRPEDTAIYYCARDVFLSDYDQSGYDVTRGGFDYWGQGTLVTVSS
VL: EIVMTQSPATLSVSPGESATLSCRASQSVSSSLAWYQHKFGQAPRLLIYGASTRATGIPDRFSGSGSGMEFTLTISSLQSEDVAIYYCQQYGDWPLVTFGGGTKVEIK
With B6, the results for the EC50 with SADS FP peptide and with HCoV-229E S ectodomain were 0.024 µg/mL and 0.0482 µg/mL, respectively. Further, the “Ancestral Pseudovirus IC50” value in assay [1] amounted to 3.56 µg/mL.

B7: fp.009 (antibody, V domains shown)
VH: VQLVESGGGVVQPGTSLTLSCEASGFTFSNYAMHWVRQAPGKGLEWVAIISFDTRNKKFAGSVQGRFSISRDNAKNSIYLQMNNLRPEDTGIYYCARDVFLSDYDSRGFDRTRGGFDYWGQGTLVTVSS
VL: B6 VL with S18K, Q27E, S30G, H38Q, F40L, D60A, M69A, V83F, V97L
For B7, the EC50 stood at 0.0247 µg/mL in the assay with SADS FP peptide and 0.0285 µg/mL with HCoV-229E S ectodomain. Further, in [1], the “Ancestral Pseudovirus IC50” value is 0.873 µg/mL.

B8: fp.002 (antibody, V domains shown)
VH: VQLVESGGGVVQPGTSLRLSCAGSGFNFDNYAIHWVRQAPGQGLEWVAIISYEARNKKYAGSVTGRFSISRDNSKSMVYLQMDSLRGEDTAVYYCARDLFLSDYDRSGYDPTRGGFDLWGQGTLVTVSS
VL: B6 VL with S18R, F40L, D60G, M69T
B8: the EC50 worked out at 0.0252 µg/mL with SADS FP peptide and 0.04 µg/mL in the assay with HCoV-229E S ectodomain. In addition, the “Ancestral Pseudovirus IC50” value in assay [1] amounted to 16.1 µg/mL.

B9: fp.005 (antibody, V domains shown)
VH: VQLVESGGGVVQPGNSLRLSCAASGFRFNNYAMHWVRQAPGKGLEWVAIISYEARNEKYADSVKGRFSISRDNAKNTLYLQMNSLRADDTGVYYCARDLFLSDYDTSGYDRTRGGFDYWGQGALVTVSS
VL: EIVMTQSPATLSVSPGERATLSCRASQSVSNGLAWYQHRFGQPPRLLIYGASTRATGIPTRFSGSGSGTEFTLTISSLQSEDFAVYYCQQYDDWPLITFGGGTKVEIK
B9: the values for the EC50 with SADS FP peptide and in the assay with HCoV-229E S ectodomain were 0.0252 µg/mL and 0.0416 µg/mL, respectively. Besides, the “Ancestral Pseudovirus IC50” value in assay [1] worked out at 9.09 µg/mL.

B10: hr2.012 (antibody, V domains shown)
VH: QVQLVQSGAEVKKPGASVKVSCKASGYTFTSHYIHWVRQAPGQGLEWMGIIKPSGGNTIYAQTFQGRVTMTRDTSTSTVYMELRSLTSDDTAVYYCARDQDHGLQRWGQGTLVTVSS
VL: QSVLTQPPSVSAPPGQKVTISCSGSSSNIGNNFVSWYQQLPGTAPKLLIYDNIERPSGIPDRFSGSRSGTSATLGITGLQTGDEADYYCGTWDTSLGAWVFGGGTKVTVL
As to B10, the EC50 is 0.463 µg/mL with Eidolon HR2 peptide [4] and 0.0249 µg/mL in the assay with HKU24 HR2 peptide [2]. The “Ancestral Pseudovirus IC50” value in assay [1] came out at 1.72 µg/mL.

B11: hr2.013 (antibody, V domains shown)
VH: QVQLVQSGAEVKKPGASVKISCKASGYTFTNNYMNWVRQAPGQGLEWMGIIKPSSGSTIYAHKFQGRVTMTRDTSTSTVYMEVRSLTSEDTAVYYCARDQDHGLQNWGQGTLVTVSS
VL: B10 VL with P13A, P14S, S21Y, G30A, N31S, L40F, I53N, E54Q, V107L
In the case of B11, the values for the EC50 with Eidolon HR2 peptide [4] and with HKU24 HR2 peptide [2] were 0.186 µg/mL and 0.027 µg/mL, respectively.

B12: CV3-25 (antibody, V domains shown)
VH: QVQLVESGAEVKKPGESLKISCKGSGYTFTRYWIGWVRQMPGKGLEWMGIIYPGDSDTRYSPSFQGHVTISADKSISTAYLQWNSLKASDTAMYYCARLPQYCSNGVCQRWFDPWGQGTLVTVSS
VL: EIVLTQSPSSVSASVGDRVTITCRASQGISSWLAWYQQKPGKAPKLLIYAASSLQSGVPSRFSGSGSGTDFTLTISSLQPEDFATYYCQQGNSFPYTFGQGTNLEIK
Turning to B12, the EC50 with HKU24 HR2 peptide [5] turned out to be 0.0521 µg/mL; in the assay with CRCoV-240/05 HR2 peptide it was 1.92 µg/mL; with Eidolon HR2 peptide [6], 0.0351 µg/mL. Also, the “Ancestral Pseudovirus IC50” value in assay [7] came out at 0.223 µg/mL. Moreover, in [7], the “Ancestral Pseudovirus IC50 (on cells with [not given])” value was found to be 0.375 µg/mL.

B13: hr2.023 (antibody, V domains shown)
VH: QVQLVQSGAEVKKPGASVKVSCRASENIFSDSYLHWVRQAPGQGLEWMGIITPSGDKTFYAQQFQGRLTMTRDTPTNTLHMDLRGLTSADTAIYYCARQATKGGWDYWGQGTLVTVSS
VL: EIVLTQSPGTLSLSPGESATLSCRASQSVTRNYLAWYQQQPGQAPRLLIYGASNRATGVPDRFSGSGSGTDFTLTISRLEPEDFAVYYCQQYGSSPPTFIFGPGTKVDIK
For the molecule B13, the results for the EC50 in the assay with Eidolon HR2 peptide [4] and with HKU24 HR2 peptide [2] were 0.126 µg/mL and 0.0124 µg/mL, respectively.

B14: hr2.014 (antibody, V domains shown)
VH: QVQLVQSGAEVKKPGASVKVSCKASGYTFTTYAVHWLRQVPGQRPEWIGWINAANGNTKYSEKFQGRVTITRDTSASTAYMDLRSLRSEDTAVYYCARLLVVRDDPYYYGMDVWGQGTTVTVSS
VL: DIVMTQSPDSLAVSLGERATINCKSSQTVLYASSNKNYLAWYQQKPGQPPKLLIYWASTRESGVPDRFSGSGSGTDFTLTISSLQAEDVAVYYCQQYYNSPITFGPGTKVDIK
In turn, B14 yielded an EC50 with Erinaceus HR2 peptide of 0.117 µg/mL. For the same molecule, the “Ancestral Pseudovirus IC50” value in assay [1] amounted to 0.355 µg/mL.

B15: hr2.016 (antibody, V domains shown)
VH: EVQLLESGGGLVQPGGSLRLSCAASGFMFSKYAMTWVRQTPGKGLEWVSVISGGGGSTYYADSVKGRFTISRDNSKNTLYLQMNSLRAEDTAVYYCAKLLVVFVIDYWGQGALVTVSS
VL: EIVLTQSPGTLSLSPGERATLFCRASQSVSSNLAWYQQKPGRAPRLLISGASSRATGIPDRFSGSGSGTDFTLTISRLEPEDFAVYYCQQYGSSPPTFGQGTKVEIK
B15: the EC50 in the assay with Eidolon HR2 peptide [4] came out at 0.033 µg/mL. Besides, the EC50 with HKU24 HR2 peptide [2] worked out at 0.00958 µg/mL. In assay [1], the “Ancestral Pseudovirus IC50” value is 0.01 µg/mL and the “Ancestral Pseudovirus IC50 (on cells with [not given])” value stood at 0.012 µg/mL.

B16: fp.011 (antibody, V domains shown)
VH: EVQLLESGGGLVQPGGSLRLSCAGSGFTFNNYAMTWVRQAPGRGLEWVSAISGSGGSSHYADSVKGRFTITRDNSKNTLYLQMNSLRAEDTAVYYCAFIDYYSGWSYYYGLDVWGQGTTVTVSS
VL: EIVLTQSPATLSLSPGERATLSCRASQGVRTYVAWYQQKPGQAPRLLIYDASNRATGIPARFSGSGSGTDFTLTISSLEPEDFAVYYCQQRYNWPLCSFGQGTKLEIK
Consider B16, for which the EC50 was 0.0276 µg/mL with SADS FP peptide and 0.151 µg/mL with HCoV-229E S ectodomain.

B17: hr2.025 (antibody, V domains shown)
VH: EVQLVQSGAEVKKPGESLKISCKGSGYSFTNYWIAWVRLMPGKGLEWMGFIFPGDSDTRYSPSFQGQVTISADKSISTAYLQWSSLKASDTAIYYCARRRGNSGNHDPYGMDVWGHGTTVTVSS
VL: not shown
As to B17, the values for the EC50 with Eidolon HR2 peptide [4] and with HKU24 HR2 peptide [2] were 2.92 µg/mL and 0.0719 µg/mL, respectively.

B18: hr2.027 (antibody, V domains shown)
VH: B17 VH with T30A, S77T, Q82H, Y95F
VL: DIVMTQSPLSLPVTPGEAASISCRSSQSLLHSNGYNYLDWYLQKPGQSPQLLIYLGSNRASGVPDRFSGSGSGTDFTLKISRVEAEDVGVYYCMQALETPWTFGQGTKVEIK
With B18, the EC50 in the assay with Eidolon HR2 peptide [4] came out at 1.21 µg/mL; with HKU24 HR2 peptide [2], 0.0919 µg/mL.

What is called EC50 is the midpoint of the concentration-response curve. Read a low EC50 as a more potent agent. Broadly, the Kd is the equilibrium constant for the complex coming apart.
